Assay results from publication doi:10.1101/2025.01.27.635100 (bioRxiv, 2025).
Several values for one entry are separate records, joined by “and”; a condition that tells them apart may be missing. Identical values can stand only once.

B4: P2 (PIH1D2), His tag cleaved, co-purified with S1’ (natural protein)
chain: METSSKGLLTQVTQFWNLLDDLAQSDPEGYEKFIQQQLKEGKQLCAAPEPQLCLQTRILKPKEKILFINLCQWTRIPAPQSTTHPVPLTVGKPEDTTEISDAYTVIDVAYNPDVLHAAEKDQVKKNQLIQMAMKCIEEKFQFTLSHSYHITKFRIKGSIQRMKQNLMGIQTDSIDLREKMRRELTLGQIRSSTMSNPDHFPQLLLPKDQVSGKAVCLIEEISSTEIQVEMKMPAYELKIVHDHSEKPLKIELKVELPGINSVSLCDLSVSEDDLLIEVSEKYRLHLNLPKLIDTEMTTAKFIKEKSTLIITMPLV

Key:
[1] = target: T1, S1’’ (S1_(622-762)), extended version of S1_TPR3 (human, UniProt Q07617 622-762); test: NMR
T1 sequence: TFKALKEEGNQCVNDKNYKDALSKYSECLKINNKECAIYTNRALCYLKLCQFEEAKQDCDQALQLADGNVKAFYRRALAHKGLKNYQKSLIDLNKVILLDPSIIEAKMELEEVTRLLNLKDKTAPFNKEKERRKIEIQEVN

[2] = target: R1R2 complex (6xHis-R1, 3xFLAG-R2), unlabeled, NMR interaction experiments (human, UniProt Q9Y265;Q9Y230); test: NMR titration
Chain of R1R2 complex (6xHis-R1, 3xFLAG-R2), unlabeled, NMR interaction experiments (Q9Y265 whole entry, chain 1 of 2): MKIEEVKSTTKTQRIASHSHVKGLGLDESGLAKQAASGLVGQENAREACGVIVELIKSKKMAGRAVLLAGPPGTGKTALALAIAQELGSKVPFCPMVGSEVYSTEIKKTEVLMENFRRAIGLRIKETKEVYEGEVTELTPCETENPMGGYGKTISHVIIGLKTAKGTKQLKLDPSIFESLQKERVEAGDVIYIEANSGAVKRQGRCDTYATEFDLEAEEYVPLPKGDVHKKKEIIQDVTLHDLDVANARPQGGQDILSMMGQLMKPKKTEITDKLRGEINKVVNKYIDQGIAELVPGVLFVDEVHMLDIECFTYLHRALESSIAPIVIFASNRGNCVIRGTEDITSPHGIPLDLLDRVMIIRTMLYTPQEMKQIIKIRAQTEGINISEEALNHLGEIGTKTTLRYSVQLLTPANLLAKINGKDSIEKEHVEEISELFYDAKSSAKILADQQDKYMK
Chain of R1R2 complex (6xHis-R1, 3xFLAG-R2), unlabeled, NMR interaction experiments (Q9Y230 whole entry, chain 2 of 2): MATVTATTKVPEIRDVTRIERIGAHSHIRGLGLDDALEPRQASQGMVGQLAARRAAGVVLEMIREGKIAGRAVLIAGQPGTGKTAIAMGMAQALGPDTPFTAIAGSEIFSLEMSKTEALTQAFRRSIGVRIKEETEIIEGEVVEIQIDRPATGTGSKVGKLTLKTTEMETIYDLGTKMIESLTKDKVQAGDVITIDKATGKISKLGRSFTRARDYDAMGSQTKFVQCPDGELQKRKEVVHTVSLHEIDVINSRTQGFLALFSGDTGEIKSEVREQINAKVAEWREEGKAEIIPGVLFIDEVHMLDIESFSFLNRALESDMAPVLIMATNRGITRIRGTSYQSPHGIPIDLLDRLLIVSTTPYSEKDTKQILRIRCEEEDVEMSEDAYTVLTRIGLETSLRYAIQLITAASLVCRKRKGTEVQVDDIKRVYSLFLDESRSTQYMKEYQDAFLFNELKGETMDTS

[3] = target: R1^D302N R2^D299N complex, double active site mutant (no hydrolysis, ATP loaded) (human, UniProt Q9Y265;Q9Y230, D302N | D299N); test: SPR
Chain of R1^D302N R2^D299N complex, double active site mutant (no hydrolysis, ATP loaded) (Q9Y265 whole entry D302N, chain 1 of 2): as the sequence (Q9Y265 whole entry, chain 1 of 2) above, with D302N counted along it
Chain of R1^D302N R2^D299N complex, double active site mutant (no hydrolysis, ATP loaded) (Q9Y230 whole entry D299N, chain 2 of 2): as the sequence (Q9Y230 whole entry, chain 2 of 2) above, with D299N counted along it

[4] = target: RUVBL1 (R1) as a chain of the reconstituted R2S’P sample (human, UniProt Q9Y265 1-456); test: cross-linking
Chain of RUVBL1 (R1) as a chain of the reconstituted R2S’P sample (Q9Y265 whole entry): as the sequence (Q9Y265 whole entry, chain 1 of 2) above

[5] = target: RUVBL2 (R2) as a chain of the reconstituted R2S’P sample (human, UniProt Q9Y230 1-463); test: cross-linking
Chain of RUVBL2 (R2) as a chain of the reconstituted R2S’P sample (Q9Y230 whole entry): as the sequence (Q9Y230 whole entry, chain 2 of 2) above

[6] = target: B4; test: cross-linking
[7] = target: T2, R1R2 hetero-hexamer (pETDuet:His-R1R2-FH8), preparation for cryo-EM, native MS, mass photometry and XL-MS (human, UniProt Q9Y265;Q9Y230); test: native MS
T2 sequence (Q9Y265 whole entry, chain 1 of 2): as the sequence (Q9Y265 whole entry, chain 1 of 2) above
T2 sequence (Q9Y230 whole entry, chain 2 of 2): as the sequence (Q9Y230 whole entry, chain 2 of 2) above

[8] = target: T2, R1R2 hetero-hexamer …; test: mass photometry

B1: P2_CS domain (P2_(231-315)) (domain or fragment)
chain: KMPAYELKIVHDHSEKPLKIELKVELPGINSVSLCDLSVSEDDLLIEVSEKYRLHLNLPKLIDTEMTTAKFIKEKSTLIITMPLV
Question: Does B1 bind [1]?
Answer: binds

B2: S1_C (SPAG1 796-926), isotope-labelled NMR sample (domain or fragment)
chain: EKLPIAKPNNAYEFGQIINALSTRKDKEACAHLLAITAPKDLPMFLSNKLEGDTFLLLIQSLKNNLIEKDPSLVYQHLLYLSKAERFKMMLTLISKGQKELIEQLFEDLSDTPNNHFTLEDIQALKRQYEL
Question: Does B2 bind [2]?
Answer: binds

B3: S1’P2 heterodimer, SPR preparation (complex)
chain 1: TFKALKEEGNQCVNDKNYKDALSKYSECLKINNKECAIYTNRALCYLKLCQFEEAKQDCDQALQLADGNVKAFYRRALAHKGLKNYQKSLIDLNKVILLDPSIIEAKMELEEVTRLLNLKDKTAPFNKEKERRKIEIQEVNEGKEEPGRPAGEVSMGCLASEKGGKSSRSPEDPEKLPIAKPNNAYEFGQIINALSTRKDKEACAHLLAITAPKDLPMFLSNKLEGDTFLLLIQSLKNNLIEKDPSLVYQHLLYLSKAERFKMMLTLISKGQKELIEQLFEDLSDTPNNHFTLEDIQALKRQYEL
chain 2: METSSKGLLTQVTQFWNLLDDLAQSDPEGYEKFIQQQLKEGKQLCAAPEPQLCLQTRILKPKEKILFINLCQWTRIPAPQSTTHPVPLTVGKPEDTTEISDAYTVIDVAYNPDVLHAAEKDQVKKNQLIQMAMKCIEEKFQFTLSHSYHITKFRIKGSIQRMKQNLMGIQTDSIDLREKMRRELTLGQIRSSTMSNPDHFPQLLLPKDQVSGKAVCLIEEISSTEIQVEMKMPAYELKIVHDHSEKPLKIELKVELPGINSVSLCDLSVSEDDLLIEVSEKYRLHLNLPKLIDTEMTTAKFIKEKSTLIITMPLV
Question: Does B3 bind [3]?
Answer: binds

Question: Does B4 bind [4]?
Answer: binds

Question: Does B4 bind [5]?
Answer: binds

B5: S1’ (SPAG1 622-926), untagged, co-expressed with His-P2 (domain or fragment)
chain: TFKALKEEGNQCVNDKNYKDALSKYSECLKINNKECAIYTNRALCYLKLCQFEEAKQDCDQALQLADGNVKAFYRRALAHKGLKNYQKSLIDLNKVILLDPSIIEAKMELEEVTRLLNLKDKTAPFNKEKERRKIEIQEVNEGKEEPGRPAGEVSMGCLASEKGGKSSRSPEDPEKLPIAKPNNAYEFGQIINALSTRKDKEACAHLLAITAPKDLPMFLSNKLEGDTFLLLIQSLKNNLIEKDPSLVYQHLLYLSKAERFKMMLTLISKGQKELIEQLFEDLSDTPNNHFTLEDIQALKRQYEL
Question: Which results are given for B5?
Answer: binding result [6]: binds; binding result [5]: binds

B6: S1’P2 heterodimer, preparation for cryo-EM, native MS, mass photometry and XL-MS (complex)
chain 1: TFKALKEEGNQCVNDKNYKDALSKYSECLKINNKECAIYTNRALCYLKLCQFEEAKQDCDQALQLADGNVKAFYRRALAHKGLKNYQKSLIDLNKVILLDPSIIEAKMELEEVTRLLNLKDKTAPFNKEKERRKIEIQEVNEGKEEPGRPAGEVSMGCLASEKGGKSSRSPEDPEKLPIAKPNNAYEFGQIINALSTRKDKEACAHLLAITAPKDLPMFLSNKLEGDTFLLLIQSLKNNLIEKDPSLVYQHLLYLSKAERFKMMLTLISKGQKELIEQLFEDLSDTPNNHFTLEDIQALKRQYEL
chain 2: METSSKGLLTQVTQFWNLLDDLAQSDPEGYEKFIQQQLKEGKQLCAAPEPQLCLQTRILKPKEKILFINLCQWTRIPAPQSTTHPVPLTVGKPEDTTEISDAYTVIDVAYNPDVLHAAEKDQVKKNQLIQMAMKCIEEKFQFTLSHSYHITKFRIKGSIQRMKQNLMGIQTDSIDLREKMRRELTLGQIRSSTMSNPDHFPQLLLPKDQVSGKAVCLIEEISSTEIQVEMKMPAYELKIVHDHSEKPLKIELKVELPGINSVSLCDLSVSEDDLLIEVSEKYRLHLNLPKLIDTEMTTAKFIKEKSTLIITMPLV
Question: Which “stoichiometry N” value [7] does the source give for B6 here?
Answer: 1 S’P2 per R1R2 hexamer and 2 S’P2 per R1R2 hexamer

Question: What about the “stoichiometry N” value [8] of the same binder?
Answer: 1 S1’P2 per R1R2 hexamer and 2 S1’P2 per R1R2 hexamer and 1 S1’P2 per R1R2 dodecamer and 2 S1’P2 per R1R2 dodecamer

B7: S1’P2_(231-315) heterodimer, SPR preparation (complex)
chain 1: TFKALKEEGNQCVNDKNYKDALSKYSECLKINNKECAIYTNRALCYLKLCQFEEAKQDCDQALQLADGNVKAFYRRALAHKGLKNYQKSLIDLNKVILLDPSIIEAKMELEEVTRLLNLKDKTAPFNKEKERRKIEIQEVNEGKEEPGRPAGEVSMGCLASEKGGKSSRSPEDPEKLPIAKPNNAYEFGQIINALSTRKDKEACAHLLAITAPKDLPMFLSNKLEGDTFLLLIQSLKNNLIEKDPSLVYQHLLYLSKAERFKMMLTLISKGQKELIEQLFEDLSDTPNNHFTLEDIQALKRQYEL
chain 2: KMPAYELKIVHDHSEKPLKIELKVELPGINSVSLCDLSVSEDDLLIEVSEKYRLHLNLPKLIDTEMTTAKFIKEKSTLIITMPLV
Question: Does B7 bind [3]?
Answer: binds
